Data on two substances can be found in paper PMC10293821.

The target of experiment [1] is histidine-rich protein II (HRPII) purified from conditioned media of cultured P. falciparum (P. falciparum strain 3D7). Description: AUC.
The target of experiment [2] is apo recombinant HRPII mutant with a 4 amino acid C terminus truncation (P. falciparum). Description: AUC.

“histidine-rich protein II (HRPII) purified from conditioned media of cultured P. falciparum (natural protein)”: the stoichiometry N in experiment [1] came to 14.
Turning to “apo recombinant HRPII mutant with a 4 amino acid C terminus truncation (domain or fragment)”, the stoichiometry N in experiment [2] is 3.
